Reference: publication PMC7613211 (Nature chemical biology, 2022)

How the values were obtained:
BT4631^6S-Gal/GalNAc = target: T1, BT4631^6S-Gal/GalNAc (Bacteroides thetaiotaomicron, UniProt Q89YV0); assay: desulfation assay; assay type: biochemical
T1 sequence (Q89YV0 26-520): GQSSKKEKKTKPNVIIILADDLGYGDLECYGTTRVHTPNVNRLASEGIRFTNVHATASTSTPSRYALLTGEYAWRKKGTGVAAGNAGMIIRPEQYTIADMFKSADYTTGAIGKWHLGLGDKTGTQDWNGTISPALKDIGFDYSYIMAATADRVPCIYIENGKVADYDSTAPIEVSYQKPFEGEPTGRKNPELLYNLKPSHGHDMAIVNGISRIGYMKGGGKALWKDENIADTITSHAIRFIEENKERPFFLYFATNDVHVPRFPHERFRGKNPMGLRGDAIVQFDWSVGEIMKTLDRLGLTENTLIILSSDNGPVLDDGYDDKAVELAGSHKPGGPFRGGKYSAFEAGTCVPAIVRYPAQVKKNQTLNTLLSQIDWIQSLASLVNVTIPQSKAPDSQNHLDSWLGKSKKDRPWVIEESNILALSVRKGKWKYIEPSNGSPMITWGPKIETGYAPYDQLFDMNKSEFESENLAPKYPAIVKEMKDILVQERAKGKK

[1] = target: BT3796^4S-Gal/GalNAc (Bacteroides thetaiotaomicron) (UniProt Q8A171); assay: SEC-MALS
[2] = target: BT1918^3S,6S-GlcNAc (Bacteroides thetaiotaomicron) (UniProt Q8A6G6); assay: SEC-MALS
SEC-MALS = target: the molecule itself; assay: SEC-MALS

CC(=O)N[C@H]1C(O)O[C@H](COS(=O)(=O)O)[C@H](O)[C@@H]1O (stereo partly drawn) [6S-GalNAc]
desulfation assay (kcat/KM only, supplement) (BT4631^6S-Gal/GalNAc): BT4631^6S-Gal/GalNAc cleave both 6S-GalNAc and 6S-Gal equally well

BT3796^4S-Gal/GalNAc (from UniProt Q8A171 1-518) (enzyme)
stoichiometry N [1]: 2

BT1918^3S,6S-GlcNAc (from UniProt Q8A6G6 1-500) (enzyme)
stoichiometry N [2]: 2

O=S(=O)(O)OC[C@H]1OC(O)[C@H](O)[C@@H](O)[C@H]1O (stereo partly drawn) [6S-Gal]
desulfation assay (kcat/KM only, supplement) (BT4631^6S-Gal/GalNAc): BT4631^6S-Gal/GalNAc cleave both 6S-GalNAc and 6S-Gal equally well

B1: BT3057^4S-Gal/GalNAc (enzyme, Bacteroides thetaiotaomicron, UniProt Q8A397 1-508, looked up)
chain: QERPNIIVFLVDDMGLMDTSVPFIADESGQPVRHPLNDWYHTPNMERLAKQGICFSTFYAQSVSSPSRASIMTGQNATRHGVTNWINAESNNRNPFGPPQWNWKGLRKDMPTMPRVLQQAGYKTIHVGKAHFGCMGSEGENPLNIGFDVNIAGSGIGHPGSYYGEWGYGHIKGQKIRAVPDLEKYHGTDTFLSEALTIEANREITKAVEEKRPFYLNMAHYAVHSPFQADKRFLSRYTDPDKNEQARAFATLIEGMDKSLGDIMDQLEKLGIAENTLILFLGDNGGDAPLGDERGYGSSAPLRGKKGTEFEGGMRVPFIAAWAKPEKKSKVQKNLPIEVGSMQTQLGTIMDIYPTVLSVAGCEVPQNYVIDGFDLKKQLSGKVDKKRPESFLMHFPHAHRGSYFTTYRMGDWKLIYYYLPETPKQPKALLYNLKDDPEERNELSAAHPDQCREMIREMSARLEKEGALYPVDKQGNELKPFVYF
stoichiometry N (SEC-MALS): 2
